From patent US12692310B2, “ASIC1 channel antagonist antibody” (ShanghaiTech University, priority 2019, dated 2026)

T1: hASIC1a-eYFP on CHO-K1 cells (Homo sapiens, UniProt P78348)
T1 construct: overexpress the full-length hASIC1a (1-528 amino acids) protein fused with eYFP; expressed in transfected cells; host or cells: CHO-K1, transient
T1 sequence (P78348 1-528): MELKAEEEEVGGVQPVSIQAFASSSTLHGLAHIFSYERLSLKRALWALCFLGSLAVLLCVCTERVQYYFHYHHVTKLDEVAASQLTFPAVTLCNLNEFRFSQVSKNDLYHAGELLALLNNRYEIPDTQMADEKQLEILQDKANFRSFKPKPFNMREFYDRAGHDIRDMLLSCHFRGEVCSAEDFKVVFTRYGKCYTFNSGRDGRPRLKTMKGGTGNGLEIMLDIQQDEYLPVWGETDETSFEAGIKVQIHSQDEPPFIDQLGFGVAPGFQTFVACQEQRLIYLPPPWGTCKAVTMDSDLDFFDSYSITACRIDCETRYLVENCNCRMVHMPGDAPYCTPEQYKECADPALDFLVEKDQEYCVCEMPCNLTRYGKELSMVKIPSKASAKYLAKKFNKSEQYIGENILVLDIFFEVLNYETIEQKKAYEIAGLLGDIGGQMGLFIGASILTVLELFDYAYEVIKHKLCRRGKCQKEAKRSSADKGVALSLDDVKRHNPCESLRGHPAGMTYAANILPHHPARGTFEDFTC

T2: hASIC1a-eYFP (human, UniProt P78348 1-528)
T2 construct: whole, on cells; On CHO-K1 cells, stably (6H7) or transiently transfected; also called full-length hASIC1a (1-528 amino acids) fused with eYFP; CHO-K1/hASIC1a cells; not shown: C-terminal eYFP fusion
T2 sequence (looked up): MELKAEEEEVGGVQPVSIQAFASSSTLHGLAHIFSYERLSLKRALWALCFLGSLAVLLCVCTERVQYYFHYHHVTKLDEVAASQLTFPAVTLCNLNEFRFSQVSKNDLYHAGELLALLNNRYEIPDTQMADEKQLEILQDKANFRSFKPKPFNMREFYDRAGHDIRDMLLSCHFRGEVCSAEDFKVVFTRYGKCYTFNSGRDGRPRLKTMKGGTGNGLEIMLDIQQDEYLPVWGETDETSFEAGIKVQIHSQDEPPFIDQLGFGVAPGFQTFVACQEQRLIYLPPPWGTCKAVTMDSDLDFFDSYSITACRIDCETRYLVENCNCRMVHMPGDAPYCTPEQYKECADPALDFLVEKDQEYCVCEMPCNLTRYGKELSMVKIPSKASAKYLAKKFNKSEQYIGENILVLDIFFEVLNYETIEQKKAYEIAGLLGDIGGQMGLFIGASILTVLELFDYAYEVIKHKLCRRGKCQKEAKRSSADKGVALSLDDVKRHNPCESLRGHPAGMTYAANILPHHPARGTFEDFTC


What was measured:
[1] = biological target: T1, hASIC1a-eYFP on CHO-K1 cells; test: Immunocytochemistry on CHO-K1/hASIC1a cells; format: cell-based; settings: ICC, confocal; for localization to plasma membranes of cells expressing hASIC1a-eYFP: compared to ASC01 and ASC05
Method: Cell Membrane Colocalization Studies Using Immunocytochemistry (ICC). Cells (CHO-K1) were seeded onto the poly-D-lysine-coated glass bottom 24-well plates at a concentration of 2×10^5 cells per mL. After 12 h of cultivation, the CHO-K1 cells were transfected with ASIC plasmids by Lipofectin 3000 reagent. Twenty-four hours after transfection, the cells were fixed in 4% paraformaldehyde and incubated for 30 min in a blocking solution (5% goat serum in PBS). The resulting cells were incubated with […] ASC06-IgG1 at 4° C. overnight followed by three PBS washes for 5 min each and incubation with the Alexa555-conjugated goat anti-human secondary antibody (Life Technology). After three additional PBS washes for 5 min each, the nuclei of the cells were stained with DAPI (#10236276001; Roche). The ICC analysis was performed on a laser scanning confocal microscopy (ZEISS LSM710) with a 63×N.A. 1.4 objective at 25° C. Images were collected on a 1,024×1,024-pixel EM-CCD camera. Data acquisition and analyses were performed with the ZEN 2012 professional software.
To understand whether ASC01-ASC06 specifically bind to the ASIC1a protein expressed on cell surface, the binding of the antibodies to CHO-K1/hASIC1a cells was evaluated using immunocytochemistry. The CHO-K1/hASIC1a cells overexpress the full-length hASIC1a (1-528 amino acids) protein fused with eYFP. […] It is likely that ASC01-ASC05 recognize specific ASIC1a confirmations or subpopulations.
The ASC06 antibody was converted into a full length IgG1 form (ASC06-IgG1) for further study. […] The binding of ASC06-IgG1 to CHO-K1/hASIC1a cells was evaluated using immunocytochemistry, in comparison with the ASC06 (scFv format) antibody.

[2] = biological target: T3, ΔhASIC1a-nanodiscs (Homo sapiens, UniProt P78348); test: Binding affinities of scFv antibodies to ΔhASIC1a-nanodiscs, Octet system; settings: scFv format; for Response: Conc. 500 nM; for Response / Kd: Octet system; for affinities for ΔhASIC1a nanodiscs, comparison in words: among ASC01-ASC06
T3 construct: A truncated ASIC1a (amino acids 13-464; ΔhASIC1a) was overexpressed and purified; made in house; host or cells: HEK293F (BacMam baculovirus)
Source text: Nanodisc Assembly of hASIC1a Channel. To mimic the lipid bilayer environment of cellular membranes, the purified ΔhASIC1a protein was incorporated into a lipid nanodisc by mixing the ΔhASIC1a protein with the membrane scaffold protein (MSP). and 1,2-dimyristoyl-sn-glycero-3-phosphocholine (DMPC) at a molar ratio of 3:2:65. The associated detergents were removed by gentle agitation with the Bio-Beads SM2 [Bio-Beads:DDM=10:1 (wt/wt); Bio-Rad]overnight. The ΔhASIC1a-embedded nanodiscs were separated from the unassembled nanodisc using the Flag peptide-specific magnetic beads. D'Antona et al., Biochemistry 53:127-134 (2014). The desired ΔhASIC1a nanodisc assembly was further purified and collected using a Superose 6 column (GE Healthcare) in a buffer containing 20 mM Tris, pH 7.5, and 150 mM NaCl. The empty nanodiscs were packaged without the addition of ΔhASIC1a. The composition of the assembled ΔhASIC1a nanodiscs was analyzed by SDS-PAGE, EM, and dynamic light scattering (FIGS. 9A-C, 12A, 12B)
The binding ability of ASC01-ASC06 antibodies in scFv format to ΔhASIC1a-nanodiscs, in comparison to the empty nanodiscs, was evaluated using ELISA. […] Affinities of the antibodies were then measured.

[3] = biological target: truncated hASIC1a (amino acids 13-464) (human) (UniProt P78348); test: Octet, scFv format, ΔhASIC1a nanodiscs
[4] = biological target: truncated hASIC1a (amino acids 13-464) (human) (UniProt P78348); test: Octet, scFv format at 500 nM, ΔhASIC1a nanodiscs
[5] = biological target: T2, hASIC1a-eYFP; test: immunocytochemistry, confocal microscopy, CHO-K1 cells expressing hASIC1a-eYFP

T3 sequence (P02647 68-267 partner limits assumed, one chain of several): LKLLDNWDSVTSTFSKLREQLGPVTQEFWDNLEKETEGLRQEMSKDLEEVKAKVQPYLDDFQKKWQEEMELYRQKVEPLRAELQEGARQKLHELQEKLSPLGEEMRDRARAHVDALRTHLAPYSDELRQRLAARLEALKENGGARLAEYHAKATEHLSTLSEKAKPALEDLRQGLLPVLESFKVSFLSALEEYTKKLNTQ

| Molecule | localization to plasma membranes of cells expressing hASIC1a-eYFP [1] | Response [2] | Kd [2] | Kd [3] | Response [4] | binding result [5] | affinities for ΔhASIC1a nanodiscs, comparison in words [2] | membrane co-localization with hASIC1a [1] |
| --- | --- | --- | --- | --- | --- | --- | --- | --- |
| ASC02: anti-ASIC1a scFv antibody, VH SEQ ID NO: 12 and VL SEQ ID NO: 17 (antibody, V domains shown, scFv linker; Amino acid sequence of ASC02 VH; Amino acid sequence of ASC02 VL) VH: QVQLVQSGAEVKKPGASMKVSCTTSGYTVTGYYIHWLRQAPGQGFEWMGWINPNLGVTNYAQKFQGRVSMTRDPSIKTAYLELSGLRSDDTAMYYCARASTGGIFYDYWGQGTLVTVSS VL: NFMLTQPHSMSESPGKTVTISCTRSSGNIASNYVQWYQQRPGSSPTTVIYDDNQRPSGVPDRFSGSIDSISNSASLTISGLKTEDEADYYCQSYDSSSVIFGGGTKLTVLG | localized more to the plasma membranes | 0.2888 | 262 nM | – | – | – | – | – |
| ASC05: anti-ASIC1a scFv antibody, VH SEQ ID NO: 42 and VL SEQ ID NO: 47 (antibody, V domains shown, scFv linker; Amino acid sequence of ASC05 VH; Amino acid sequence of ASC05 VL) VH: QVQLVESGAEVKKPGASVRVSCKASGYSFTNYYMHWVRQAPGQGLEWMGIISPSGRSTSFAQKFQGRVTMTRDTSTSTVYMHLSSLRSDDTAVYYCARGAWSTDAFDIWGQGTTVTVSS VL: QSALTQPASVSGSPGQSITISCTGTSSDVGSYNLVSWYQQHPGKAPKLMIYEGSKRPSGVSNRFSGSKSGNTASLTISGLQAEDEAEYHCSSFTGKGYVFGTGTKLTVLGGLG | – | 0.5016 | 137 nM | – | – | – | – | – |
| ASC01: anti-ASIC1a scFv antibody, VH SEQ ID NO: 2 and VL SEQ ID NO: 7 (antibody, V domains shown, scFv linker; Amino acid sequence of ASC01 VH; Amino acid sequence of ASC01 VL) VH: QVQLVETGPRLVKPSQTLSLTCTVSGGSINSGGYYWGWIRQHSGKGLEWIGYIYPRGSSYYNPSLRSRVTISADTSRNNFSLKLTSVTAADTAVYYCARVGYTGAFDIWGQGTLVTVSS VL: QAVLTQPSSVSAAPGQKVTISCSGGNSNIGNNYVSWYQQLPGTAPKLLIYDNNKRPSGIPDRFSGSKSGTAATLGITGLQTGDEADYYCGTWDSSLSAGVFGEGTQLTVLG | – | 0.431 | 45.1 nM | – | – | – | – | – |
| ASC04: anti-ASIC1a scFv antibody, VH SEQ ID NO: 32 and VL SEQ ID NO: 37 (antibody, V domains shown, scFv linker; Amino acid sequence of ASC04 VH; Amino acid sequence of ASC04 VL) VH: QVQLVQSGAEVKKPGSSVKVSCKASGGTFSTYAINWVRQAPGQGLEWMGWMNPNSGNTGYAQKFQGRVTMTRNTSISTAYMELSSLRSEDTAVYYCARYSYGMDVWGQGTTVTVSS VL: QAVLTQPSSLSASPGASVSLTCTLRSGINVGAYRIYWYQQKPGSPPQFLLRYKSDSDKQQGSGVPSRFSGSRDASANAGILLISGLRSEDEADYYCAIWHSSAWVFGGGTKLTVLG | localized more to the plasma membranes | 0.995 | 20.8 nM | – | – | – | strongest affinities | – |
| ASC03: anti-ASIC1a scFv antibody, VH SEQ ID NO: 22 and VL SEQ ID NO: 27 (antibody, V domains shown, scFv linker; Amino acid sequence of ASC03 VH; Amino acid sequence of ASC03 VL) VH: QVQLVESGAEVKKPGSSVKVSCKASGGNFRKYSISWVRQAPGQGLEWMGWISAYNGNTNYAQKLQGRVTMTTDTSTSTAYMELRSLRSDDTAVYYCARDFDPYYDAFDIWGQGTTVTVSS VL: QSALTQPASVSGSPGQSITISCTGTSSDVGAYNYVSWYQQHPGKAPKLMIYDVSNRLSGVSNRFSGSKSGNRASLTISGLQAEDEADYYCSSYRSGNSLAFGGGTKLTVLG | localized more to the plasma membranes | 0.2693 | 259 nM | – | – | – | – | – |

More lines, now with the values ahead:

| localization to plasma membranes of cells expressing hASIC1a-eYFP [1] | Response [2] | Kd [2] | Kd [3] | Response [4] | binding result [5] | affinities for ΔhASIC1a nanodiscs, comparison in words [2] | membrane co-localization with hASIC1a [1] | Molecule |
| --- | --- | --- | --- | --- | --- | --- | --- | --- |
| – | – | – | 137 nM | 0.502 | binds | – | – | ASC05 (scFv, V domains shown, also called ASC05 scFv; ASC05 (scFv format)) VH: QVQLVESGAEVKKPGASVRVSCKASGYSFTNYYMHWVRQAPGQGLEWMGIISPSGRSTSFAQKFQGRVTMTRDTSTSTVYMHLSSLRSDDTAVYYCARGAWSTDAFDIWGQGTTVTVSS VL: QSALTQPASVSGSPGQSITISCTGTSSDVGSYNLVSWYQQHPGKAPKLMIYEGSKRPSGVSNRFSGSKSGNTASLTISGLQAEDEAEYHCSSFTGKGYVFGTGTKLTVLG |
| – | – | – | 45.1 nM | 0.431 | binds | – | – | ASC01 (scFv, V domains shown, also called ASC01 scFv; ASC01 (scFv format)) VH: QVQLVETGPRLVKPSQTLSLTCTVSGGSINSGGYYWGWIRQHSGKGLEWIGYIYPRGSSYYNPSLRSRVTISADTSRNNFSLKLTSVTAADTAVYYCARVGYTGAFDIWGQGTLVTVSS VL: QAVLTQPSSVSAAPGQKVTISCSGGNSNIGNNYVSWYQQLPGTAPKLLIYDNNKRPSGIPDRFSGSKSGTAATLGITGLQTGDEADYYCGTWDSSLSAGVFGEGTQLTVLG |
| – | – | – | 21.7 nM | 0.571 | – | – | – | ASC06 (scFv, V domains shown) VH: QVQLQQSGGGLVQPGGSLRLSCAASGFTFSSYAMSWVRQAPGKGLEWVSAISGSGGSTYYADSVKGRFTISRDNSKNTLYLQMNSLRAEDTAVYYCAKDSFYGYSKGDWGQGTLVTVSS VL: QSALTQPASVSGSPGQSITISCTGTSSDVGAYNYVSWYQQQPGKAPKLMIYGVSNRPSGVSNRFSGSKSGNAASLTISGLQAEDEADYYCSSYTSSSTYVFGTGTKLTVLG |
| localized more to the plasma membranes | 0.5712 | 21.7 nM | – | – | – | strongest affinities | more co-localization with hASIC1a-eYFP | ASC06: anti-ASIC1a scFv antibody, VH SEQ ID NO: 52 and VL SEQ ID NO: 57 (antibody, V domains shown, scFv linker; Amino acid sequence of ASC06 VH; Amino acid sequence of ASC06 VL) VH: QVQLQQSGGGLVQPGGSLRLSCAASGFTFSSYAMSWVRQAPGKGLEWVSAISGSGGSTYYADSVKGRFTISRDNSKNTLYLQMNSLRAEDTAVYYCAKDSFYGYSKGDWGQGTLVTVSS VL: QSALTQPASVSGSPGQSITISCTGTSSDVGAYNYVSWYQQQPGKAPKLMIYGVSNRPSGVSNRFSGSKSGNAASLTISGLQAEDEADYYCSSYTSSSTYVFGTGTKLTVLG |
